This note sets out measurements from PMC3008307 (Virology, 2010).

One assay deals with 6-His-cdk8 (human, UniProt P49336 1-464). The experiment in a line: pull-down.
For the next assay, the target named is 6-His-cdk3 (human, UniProt Q00526 1-305). Put plainly: pull-down.
Sequence of 6-His-cdk3 (Q00526 whole entry): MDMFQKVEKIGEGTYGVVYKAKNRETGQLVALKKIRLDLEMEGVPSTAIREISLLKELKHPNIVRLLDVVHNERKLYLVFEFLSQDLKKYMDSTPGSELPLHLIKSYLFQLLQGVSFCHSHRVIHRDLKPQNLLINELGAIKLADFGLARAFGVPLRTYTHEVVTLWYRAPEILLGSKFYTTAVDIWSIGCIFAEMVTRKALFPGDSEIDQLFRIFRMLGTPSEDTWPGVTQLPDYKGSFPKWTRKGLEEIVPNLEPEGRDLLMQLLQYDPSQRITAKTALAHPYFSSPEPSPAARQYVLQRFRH

Sequence of 6-His-cdk8 (P49336 whole entry): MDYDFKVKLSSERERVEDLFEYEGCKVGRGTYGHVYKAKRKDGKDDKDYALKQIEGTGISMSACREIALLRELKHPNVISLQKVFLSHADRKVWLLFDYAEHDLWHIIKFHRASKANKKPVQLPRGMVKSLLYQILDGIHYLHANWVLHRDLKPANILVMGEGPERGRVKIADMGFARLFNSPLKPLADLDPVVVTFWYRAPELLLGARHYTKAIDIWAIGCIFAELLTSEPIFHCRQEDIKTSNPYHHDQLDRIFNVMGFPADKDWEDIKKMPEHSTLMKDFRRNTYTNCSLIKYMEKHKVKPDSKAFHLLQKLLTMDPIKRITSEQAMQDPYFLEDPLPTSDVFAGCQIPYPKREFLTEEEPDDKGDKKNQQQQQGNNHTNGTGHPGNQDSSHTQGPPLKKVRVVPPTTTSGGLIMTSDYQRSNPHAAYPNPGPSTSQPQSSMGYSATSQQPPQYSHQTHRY

B1: GST-cyclin C (natural protein, human, UniProt P24863 1-283, looked up)
chain: MAGNFWQSSHYLQWILDKQDLLKERQKDLKFLSEEEYWKLQIFFTNVIQALGEHLKLRQQVIATATVYFKRFYARYSLKSIDPVLMAPTCVFLASKVEEFGVVSNTRLIAAATSVLKTRFSYAFPKEFPYRMNHILECEFYLLELMDCCLIVYHPYRPLLQYVQDMGQEDMLLPLAWRIVNDTYRTDLCLLYPPFMIALACLHVACVVQQKDARQWFAELSVDMEKILEIIRVILKLYEQWKNFDERKEMATILSKMPKPKPPPNSEGEQGPNGSQNSSYSQS
In the case of B1, the binding result in the assay with 6-His-cdk8 and with 6-His-cdk3 was “binds” in each case.

B2: GST-rv-cyclin (natural protein)
chain: MDIPVEFLTAQEPLSYGHIPPVYWKELLNWIDRILTHNQATPNTWEATHMVLLKLHGTLSFSNPAQLPLVAAACLQIAAKHTEAHSRLADPDYITMLGDGVYTKPSLLLTETMALFIVGGHVGAYTLAACDWLLGSLPFSQAENDLLHPYMYHYIKLSYRHRTPDYHSSPALRAAVVIAAAVKGADLLEMNMLFIMMYHLTHISTASLSLGLTHFTAALQRQINLDFAEAEQREAAERRALLEREREQQLQEARERLDDVMAVLEAEVAITITTATEGTDAEDTSEVDVINVVDPIG
For B2, the binding result with 6-His-cdk8 and in the assay with 6-His-cdk3 was “binds” in each case.
